Assay results from the Human Domainome abundance scans (Beltran et al. 2025).
± gives the uncertainty stated by the source.

B1: Gamma-crystallin S, residues 96 to 176; numbered along this chain, P22914 (parent)
chain: IQIFEKGDFSGQMYETTEDCPSIMEQFHMREIHSCKVLEGVWIFYELPNYRGRQYLLDKKEYRKPIDWGAASPAVQSFRRI

Variants of: B1
Test: abundance fitness (aPCA) (normalised: wild type 0, dead -1); higher = more abundant; growth selection in yeast, the domain comes from the species named
Conditions: Homo sapiens
For IQIFEKGDFSGQMYETTEDCPSIMEQFHMREIASCKVLEGVWIFYELPNYRGRQYLLDKKEYRKPIDWGAASPAVQSFRRI [H33A], the abundance fitness was -0.047 ± 0.049.
IQIFEKGDFSGQMYETTEDCPSIMEQFHMREIKSCKVLEGVWIFYELPNYRGRQYLLDKKEYRKPIDWGAASPAVQSFRRI [H33K] showed an abundance fitness of -0.12 ± 0.077.
Variant IQIFEKGDFSGQMYETTEDCPSIMEQFHMREILSCKVLEGVWIFYELPNYRGRQYLLDKKEYRKPIDWGAASPAVQSFRRI [H33L] has an abundance fitness of -0.021 ± 0.044.
IQIFEKGDFSGQMYETTEDCPSIMEQFHMREICSCKVLEGVWIFYELPNYRGRQYLLDKKEYRKPIDWGAASPAVQSFRRI [H33C] showed an abundance fitness of 0.035 ± 0.063.
Work on IQIFEKGDFSGQMYETTEDCPSIMEQFHMREIGSCKVLEGVWIFYELPNYRGRQYLLDKKEYRKPIDWGAASPAVQSFRRI [H33G] yielded an abundance fitness of 0.012 ± 0.033.
IQIFEKGDFSGQMYETTEDCPSIMEQFHMREIISCKVLEGVWIFYELPNYRGRQYLLDKKEYRKPIDWGAASPAVQSFRRI [H33I] gave an abundance fitness of -0.002 ± 0.08.
With IQIFEKGDFSGQMYETTEDCPSIMEQFHMREIESCKVLEGVWIFYELPNYRGRQYLLDKKEYRKPIDWGAASPAVQSFRRI [H33E] the abundance fitness was 0.054 ± 0.046.
For IQIFEKGDFSGQMYETTEDCPSIMEQFHMREIDSCKVLEGVWIFYELPNYRGRQYLLDKKEYRKPIDWGAASPAVQSFRRI [H33D], the abundance fitness was 0.077 ± 0.055.
IQIFEKGDFSGQMYETTEDCPSIMEQFHMREINSCKVLEGVWIFYELPNYRGRQYLLDKKEYRKPIDWGAASPAVQSFRRI [H33N] gave an abundance fitness of -0.01 ± 0.11.
With IQIFEKGDFSGQMYETTEDCPSIMEQFHMREIPSCKVLEGVWIFYELPNYRGRQYLLDKKEYRKPIDWGAASPAVQSFRRI [H33P] the abundance fitness was 0.057 ± 0.062.
Work on IQIFEKGDFSGQMYETTEDCPSIMEQFHMREIMSCKVLEGVWIFYELPNYRGRQYLLDKKEYRKPIDWGAASPAVQSFRRI [H33M] yielded an abundance fitness of 0.027 ± 0.074.
IQIFEKGDFSGQMYETTEDCPSIMEQFHMREIFSCKVLEGVWIFYELPNYRGRQYLLDKKEYRKPIDWGAASPAVQSFRRI [H33F] gave an abundance fitness of 0.093 ± 0.094.
With IQIFEKGDFSGQMYETTEDCPSIMEQFHMRVIHSCKVLEGVWIFYELPNYRGRQYLLDKKEYRKPIDWGAASPAVQSFRRI [E31V] the abundance fitness was 0.072 ± 0.045.
In the case of IQIFEKGDFSGQMYETTEDCPSIMEQFHMRYIHSCKVLEGVWIFYELPNYRGRQYLLDKKEYRKPIDWGAASPAVQSFRRI [E31Y], the abundance fitness is reported as 0.116 ± 0.12.
In the case of IQIFEKGDFSGQMYETTEDCPSIMEQFHMRWIHSCKVLEGVWIFYELPNYRGRQYLLDKKEYRKPIDWGAASPAVQSFRRI [E31W], the abundance fitness is reported as 0.084 ± 0.093.
For IQIFEKGDFSGQMYETTEDCPSIMEQFHMRSIHSCKVLEGVWIFYELPNYRGRQYLLDKKEYRKPIDWGAASPAVQSFRRI [E31S], the abundance fitness was -0.034 ± 0.068.
IQIFEKGDFSGQMYETTEDCPSIMEQFHMRNIHSCKVLEGVWIFYELPNYRGRQYLLDKKEYRKPIDWGAASPAVQSFRRI [E31N] showed an abundance fitness of -0.008 ± 0.084.
In the case of IQIFEKGDFSGQMYETTEDCPSIMEQFHMRTIHSCKVLEGVWIFYELPNYRGRQYLLDKKEYRKPIDWGAASPAVQSFRRI [E31T], the abundance fitness is reported as 0.106 ± 0.086.
With IQIFEKGDFSGQMYETTEDCPSIMEQFHMRQIHSCKVLEGVWIFYELPNYRGRQYLLDKKEYRKPIDWGAASPAVQSFRRI [E31Q] the abundance fitness was 0.02 ± 0.097.
IQIFEKGDFSGQMYETTEDCPSIMEQFHMRPIHSCKVLEGVWIFYELPNYRGRQYLLDKKEYRKPIDWGAASPAVQSFRRI [E31P] gave an abundance fitness of -0.056 ± 0.094.
IQIFEKGDFSGQMYETTEDCPSIMEQFHMREFHSCKVLEGVWIFYELPNYRGRQYLLDKKEYRKPIDWGAASPAVQSFRRI [I32F] gave an abundance fitness of 0.09 ± 0.11.
For IQIFEKGDFSGQMYETTEDCPSIMEQFHMREVHSCKVLEGVWIFYELPNYRGRQYLLDKKEYRKPIDWGAASPAVQSFRRI [I32V], the abundance fitness was -0.029 ± 0.063.
IQIFEKGDFSGQMYETTEDCPSIMEQFHMRETHSCKVLEGVWIFYELPNYRGRQYLLDKKEYRKPIDWGAASPAVQSFRRI [I32T] gave an abundance fitness of -0.027 ± 0.083.
IQIFEKGDFSGQMYETTEDCPSIMEQFHMREQHSCKVLEGVWIFYELPNYRGRQYLLDKKEYRKPIDWGAASPAVQSFRRI [I32Q] gave an abundance fitness of -0.809 ± 0.28.
In the case of IQIFEKGDFSGQMYETTEDCPSIMEQFHMRELHSCKVLEGVWIFYELPNYRGRQYLLDKKEYRKPIDWGAASPAVQSFRRI [I32L], the abundance fitness is reported as 0.025 ± 0.07.
In the case of IQIFEKGDFSGQMYETTEDCPSIMEQFHMRENHSCKVLEGVWIFYELPNYRGRQYLLDKKEYRKPIDWGAASPAVQSFRRI [I32N], the abundance fitness is reported as -0.223 ± 0.23.
IQIFEKGDFSGQMYETTEDCPSIMEQFHMREWHSCKVLEGVWIFYELPNYRGRQYLLDKKEYRKPIDWGAASPAVQSFRRI [I32W] showed an abundance fitness of -0.193 ± 0.066.
For IQIFEKGDFSGQMYETTEDCPSIMEQFHMRECHSCKVLEGVWIFYELPNYRGRQYLLDKKEYRKPIDWGAASPAVQSFRRI [I32C], the abundance fitness was 0.015 ± 0.088.
With IQIFEKGDFSGQMYETTEDCPSIMEQFHMRESHSCKVLEGVWIFYELPNYRGRQYLLDKKEYRKPIDWGAASPAVQSFRRI [I32S] the abundance fitness was -0.087 ± 0.063.
IQIFEKGDFSGQMYETTEDCPSIMEQFHMREKHSCKVLEGVWIFYELPNYRGRQYLLDKKEYRKPIDWGAASPAVQSFRRI [I32K] showed an abundance fitness of -0.755 ± 0.34.
For IQIFEKGDFSGQMYETTEDCPSIMEQFHMREMHSCKVLEGVWIFYELPNYRGRQYLLDKKEYRKPIDWGAASPAVQSFRRI [I32M], the abundance fitness was -0.001 ± 0.099.
IQIFEKGDFSGQMYETTEDCPSIMEQFHMREPHSCKVLEGVWIFYELPNYRGRQYLLDKKEYRKPIDWGAASPAVQSFRRI [I32P] gave an abundance fitness of 0.051 ± 0.11.
Work on IQIFEKGDFSGQMYETTEDCPSIMEQFHMRERHSCKVLEGVWIFYELPNYRGRQYLLDKKEYRKPIDWGAASPAVQSFRRI [I32R] yielded an abundance fitness of -1.01 ± 0.095.
In the case of IQIFEKGDFSGQMYETTEDCPSIMEQFHMREEHSCKVLEGVWIFYELPNYRGRQYLLDKKEYRKPIDWGAASPAVQSFRRI [I32E], the abundance fitness is reported as -0.348 ± 0.18.
